# Measured values reported in IntAct's records for PubMed 10921873.
# B1: Coatomer subunit alpha (Saccharomyces cerevisiae), P53622 (parent)
# chain: MKMLTKFESKSTRAKGIAFHPSRPWVLVALFSSTIQLWDYRMGTLLHRFEDHEGPVRGLDFHPTQPIFVSAGDDYTIKVWSLDTNKCLYTLTGHLDYVRTVFFHRELPWIISASDDQTIRIWNWQNRKEIACLTGHNHFVMCAQFHPTDDLIVSASLDETIRIWDISGLRKRHSAPGTSSFEEQMSAQQNLLDGSLGDCVVKFILEGHTRGVNWASFHPTLPLIVSGSDDRQVKLWRMSATKAWEVDTCRGHTNNVDSVIFHPHQNLIISVGEDKTLRVWDLDKRTPVKQFKRENDRFWLIAAHPHINLFGAAHDSGIMVFKLDRERPCSFIHQNQLFFVNAEKQIQSFNFQKRVASLPYASLKGIGQPWDAFRSISYNPSQHSVLVNEANGKFALVILPKQPVGAVEPTSVTQDTGNFATFVGRNRFVVYNKNTESVEVRSLENKVTRNIKVEETVRTIVAAGPGSVLVIHPREVILYDVQQGKKVSQLAVKNVKYVSWSLDGQYVALMSKHTITLATKKLELINSMHETIRIKSAAWDETGVLIYSTLNHIRYSLLNGDRGIIKTLEKTLYITKVQGKLVYCLNREGEIEILTIDPTEYRFKKALVNKNFPEVLRLIKDSNLVGQNIISYLQKSGYPEIALQFVQDPHIRFDLALEYGNLDVALDEAKKLNDSSTWERLIQEALAQGNASLAEMIYQTQHSFDKLSFLYLVTGDVNKLSKMQNIAQTREDFGSMLLNTFYNNSTKERSSIFAEGGSLPLAYAVAKANGDEAAASAFLEQAEVDEQDVTLPDQMDASNFVQRPVISKPLEKWPLKEAELSYFEKAVLGQIDDLTIDDETPAVNTTQEQEEPLGEENFNDEDIGEDEGAWDLGDEDLDVGEELPEEVEQGEITSPAQEVETAIWIKNSKLPAVLVAAGAFDAAVQALSKQVGVVKLEPLKKYFTNIYEGCRTYIPSTPCELPAQLGYVRAYDDTVSEDQILPYVPGLDVVNEKMNEGYKNFKLNKPDIAIECFREAIYRITLLMVDDAEDEKLAHKILETAREYILGLSIELERRSLKEGNTVRMLELAAYFTKAKLSPIHRTNALQVAMSQHFKHKNFLQASYFAGEFLKIISSGPRAEQARKIKNKADSMASDAIPIDFDPYAKFDICAATYKPIYEDTPSVSDPLTGSKYVITEKDKIDRIAMISKIGAPASGLRIRV
# partner: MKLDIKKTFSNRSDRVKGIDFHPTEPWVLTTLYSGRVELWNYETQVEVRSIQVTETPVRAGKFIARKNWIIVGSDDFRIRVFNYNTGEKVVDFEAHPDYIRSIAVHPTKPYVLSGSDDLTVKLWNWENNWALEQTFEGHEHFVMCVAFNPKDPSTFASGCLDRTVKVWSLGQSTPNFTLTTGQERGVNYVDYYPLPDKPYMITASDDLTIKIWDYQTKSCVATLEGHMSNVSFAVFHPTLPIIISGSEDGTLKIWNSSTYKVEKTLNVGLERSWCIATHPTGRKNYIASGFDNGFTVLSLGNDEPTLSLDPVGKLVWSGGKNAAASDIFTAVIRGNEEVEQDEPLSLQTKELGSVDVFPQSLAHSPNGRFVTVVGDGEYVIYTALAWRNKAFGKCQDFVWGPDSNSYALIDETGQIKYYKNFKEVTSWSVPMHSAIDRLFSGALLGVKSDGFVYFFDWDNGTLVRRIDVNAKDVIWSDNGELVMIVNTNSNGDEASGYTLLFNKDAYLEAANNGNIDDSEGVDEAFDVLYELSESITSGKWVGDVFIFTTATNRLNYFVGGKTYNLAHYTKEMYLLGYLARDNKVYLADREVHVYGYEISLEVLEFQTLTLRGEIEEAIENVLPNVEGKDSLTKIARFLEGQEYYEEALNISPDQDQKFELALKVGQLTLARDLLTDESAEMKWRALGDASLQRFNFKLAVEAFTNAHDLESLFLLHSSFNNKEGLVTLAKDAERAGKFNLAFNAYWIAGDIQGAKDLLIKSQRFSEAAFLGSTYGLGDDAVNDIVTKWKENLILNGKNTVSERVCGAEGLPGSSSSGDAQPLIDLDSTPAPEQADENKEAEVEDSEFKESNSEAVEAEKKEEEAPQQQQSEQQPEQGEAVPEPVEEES
# Variants of: B1
# Conditions: with copb2_yeast SEC27, P41811
row,Variant,effect of a mutation on the interaction
1,S1188F,decreasing interaction
